Measurements taken from doi:10.1101/431494, “Conservation of the structural and functional architecture of encapsulated ferritins in bacteria and archaea” (bioRxiv, 2018).
Values joined by “and” are separate entries in the source; they are usually repeats but may differ in a detail not shown here. Equal values may be shown once.

B1: Pyrococcus furiosus encapsulated ferritin domain, residues 1-99, C-terminal StrepII-tagged variant (domain or fragment, UniProt Q8U1L4 1-99, looked up)
chain: MLSINPTLINRDKPYTKEELMEILRLAIIAELDAINLYEQMARYSEDENVRKILLDVAREEKAHVGEFMALLLNLDPEQVTELKGGFEEVKELTGIEAH
notes: EncFtn domain (residues 1-99) of the single contiguous EncFtn-encapsulin polypeptide of Pyrococcus furiosus; locus tag printed as Pfc_01575, Pfc_05157 and Pfc_05175; source: E. coli BL21(DE3), purified (Strep-Trap HP); not shown: StrepII, C-terminal, kept
B2: Pyrococcus furiosus encapsulated ferritin domain as crystallised (PDB 5N5E) (domain or fragment, UniProt Q8U1L4 1-99, looked up)
chain: B1 chain
notes: EncFtn domain (residues 1-99) of the single contiguous EncFtn-encapsulin polypeptide of Pyrococcus furiosus; electron density visible for residues 2-98 in each chain; source: E. coli BL21(DE3), purified; copies: 10
B3: Pyrococcus furiosus encapsulated ferritin domain, residues 1-99, C-terminal hexahistidine tagged variant (domain or fragment, UniProt Q8U1L4 1-99, looked up)
chain: B1 chain
notes: EncFtn domain (residues 1-99) of the single contiguous EncFtn-encapsulin polypeptide of Pyrococcus furiosus; locus tag printed as Pfc_01575, Pfc_05157 and Pfc_05175; source: E. coli BL21(DE3), purified (HisTrap FF, S200 size-exclusion chromatography); not shown: His6, C-terminal, kept
B4: Rhodospirillum rubrum encapsulated ferritin, hexahistidine-tagged variant (natural protein, UniProt Q2RVS1 1-140, looked up)
chain: MAQSSNSTHEPLEVLKEETVNRHRAIVSVMEELEAVDWYDQRVDASTDPELTAILAHNRDEEKEHAAMTLEWLRRNDAKWAEHLRTYLFTEGPITAIEAADTAGEGSGGDAAKGATAQGDGSLGIGSLKGEAALARPPRL
B5: Rhodospirillum rubrum encapsulated ferritin, Strep-tagged variant (natural protein, UniProt Q2RVS1 1-140, looked up)
chain: B4 chain
notes: source: recombinant, purified by Strep-Trap column HP

Key:
[1] = target: the molecule itself; assay: SEC; analytical size-exclusion chromatography, Superdex 200 16/60, 50 mM Tris-HCl pH 8.0, 150 mM NaCl, calibrated with standards of known molecular weight
[2] = target: the molecule itself; assay: SDS-PAGE (resistance of oligomers to SDS and heat denaturation); SDS-PAGE of the size-exclusion peak fractions
[3] = target: the molecule itself; assay: crystal structure; sitting drop vapour diffusion; Hoch_EncFtn in 0.2 M NaCl, 0.1 M Bis-Tris pH 5.5, 20 % PEG 3350; Pfc_EncFtn in 0.2 M LiSO4, 20 % PEG 3350; molecular replacement with PDB 5DA5
[4] = target: the molecule itself; assay: native MS; nano-ESI, 100 mM ammonium acetate pH 8.0, ~5 uM (oligomer concentration)

Row | Protein | stoichiometry N [1] | stoichiometry N [2] | stoichiometry N [3] | stoichiometry N [4]
1 | B1 | 10 and ~20 | 2 | – | –
2 | B2 | – | – | 10 | –
3 | B3 | ~10 | – | – | 10
4 | B4 | – | – | – | 10
5 | B5 | 10 | – | – | –
